Where “and” joins values, the source holds several entries; their conditions need not be identical. Equal entries are not always repeated.
Settings: Escherichia coli (strain K12), whole UniProt chain shown
[1] = pH 7, Thermal, DSC, Potassium phosphate 50 mM, KCl 0.5 M, reversible: no
[2] = pH 7.8, 23 °C, Urea, Fluorescence, Tris-HCl 10 mM, NaCl 100 mM, reversible: yes
[3] = pH 7.5, 20 °C, GdnHCl, CD, HEPES 5 mM, NiCl2 5 mM, reversible: Yes

B1: DNA-binding transcriptional dual regulator CRP wild type, P0ACJ8 (protein)
chain: MVLGKPQTDPTLEWFLSHCHIHKYPSKSTLIHQGEKAETLYYIVKGSVAVLIKDEEGKEMILSYLNQGDFIGELGLFEEGQERSAWVRAKTACEVAEISYKKFRQLIQVNPDILMRLSAQMARRLQVTSEKVGNLAFLDVTGRIAQTLLNLAKQPDAMTHPDGMQIKITRQEIGQIVGCSRETVGRILKMLEDQNLISAHGKTIVVYGTR
Question: With B1 as the protein, how does the Tm [1] read?
Answer: 66.4 °C

Question: And the “heat capacity change of unfolding” value [1]?
Answer: 0.42 kcal/mol/K

Question: What about the “unfolding enthalpy (calorimetric)” value [1] of the same protein?
Answer: 547 kJ/mol

Question: And the “unfolding enthalpy (van 't Hoff)” value [1]?
Answer: 967 kJ/mol

Question: And the unfolding free energy (pH 7.9, 20 °C, GdnHCl, CD, Tris-HCl 50 mM, KCl 0.1 M, reversible: yes)?
Answer: 30.1 kJ/mol

Question: What about the unfolding free energy (pH 7.9, 20 °C, Thermal, CD, Tris-HCl 50 mM, KCl 100 mM, reversible: yes) of the same protein?
Answer: 30.6 kJ/mol

B2: Chemotaxis protein CheY wild type, P0AE67 (protein)
chain: MADKELKFLVVDDFSTMRRIVRNLLKELGFNNVEEAEDGVDALNKLQAGGYGFVISDWNMPNMDGLELLKTIRADGAMSALPVLMVTAEAKKENIIAAAQAGASGYVVKPFTAATLEEKLNKIFEKLGM
Question: With B2 as the protein, how does the unfolding free energy (pH 7, 25 °C, Urea, Fluorescence, Cacodylate 100 mM) read?
Answer: 23.4 kJ/mol

B3: ATP-dependent 6-phosphofructokinase isozyme 2 wild type, P06999 (protein)
chain: MVRIYTLTLAPSLDSATITPQIYPEGKLRCTAPVFEPGGGGINVARAIAHLGGSATAIFPAGGATGEHLVSLLADENVPVATVEAKDWTRQNLHVHVEASGEQYRFVMPGAALNEDEFRQLEEQVLEIESGAILVISGSLPPGVKLEKLTQLISAAQKQGIRCIVDSSGEALSAALAIGNIELVKPNQKELSALVNRELTQPDDVRKAAQEIVNSGKAKRVVVSLGPQGALGVDSENCIQVVPPPVKSQSTVGAGDSMVGAMTLKLAENASLEEMVRFGVAAGSAATLNQGTRLCSHDDTQKIYAYLSR
Question: For B3, which unfolding free energy (pH 7.8, 20 °C, GdnHCl, Activity, Tris 50 mM, Magnesiun chloride 5 mM, reversible: Yes) is on record?
Answer: 50.6 kJ/mol

Question: What about the unfolding free energy (pH 7.8, 20 °C, GdnHCl, CD, Tris 50 mM, Magnesiun chloride 5 mM, reversible: Yes) of the same protein?
Answer: 51 kJ/mol

Question: What about the unfolding free energy (pH 7.8, 20 °C, GdnHCl, Fluorescence, Tris 50 mM, Magnesiun chloride 5 mM, reversible: Yes) of the same protein?
Answer: 49.8 kJ/mol

B4: L-asparaginase 2 wild type, P00805 (protein)
chain: MEFFKKTALAALVMGFSGAALALPNITILATGGTIAGGGDSATKSNYTVGKVGVENLVNAVPQLKDIANVKGEQVVNIGSQDMNDNVWLTLAKKINTDCDKTDGFVITHGTDTMEETAYFLDLTVKCDKPVVMVGAMRPSTSMSADGPFNLYNAVVTAADKASANRGVLVVMNDTVLDGRDVTKTNTTDVATFKSVNYGPLGYIHNGKIDYQRTPARKHTSDTPFDVSKLNELPKVGIVYNYANASDLPAKALVDAGYDGIVSAGVGNGNLYKSVFDTLATAAKTGTAVVRSSRVPTGATTQDAEVDDAKYGFVASGTLNPQKARVLLQLALTQTKDPQQIQQIFNQY
Question: With B4 as the protein, how does the unfolding free energy (pH 7.4, 25 °C, Urea, Fluorescence, Tris-HCl 50 mM) read?
Answer: 48 kJ/mol

B5: Ribose import binding protein RbsB wild type, P02925 (protein)
chain: MNMKKLATLVSAVALSATVSANAMAKDTIALVVSTLNNPFFVSLKDGAQKEADKLGYNLVVLDSQNNPAKELANVQDLTVRGTKILLINPTDSDAVGNAVKMANQANIPVITLDRQATKGEVVSHIASDNVLGGKIAGDYIAKKAGEGAKVIELQGIAGTSAARERGEGFQQAVAAHKFNVLASQPADFDRIKGLNVMQNLLTAHPDVQAVFAQNDEMALGALRALQTAGKSDVMVVGFDGTPDGEKAVNDGKLAATIAQLPDQIGAKGVETADKVLKGEKVQAKYPVDLKLVVKQ
Question: Which unfolding free energy (pH 7.7, 25 °C, GdnHCl, Fluorescence, HEPES 10 mM, reversible: yes) does the source give for B5 here?
Answer: 21.3 kJ/mol

B6: Protein GrpE wild type, P09372 (protein)
chain: MSSKEQKTPEGQAPEEIIMDQHEEIEAVEPEASAEQVDPRDEKVANLEAQLAEAQTRERDGILRVKAEMENLRRRTELDIEKAHKFALEKFINELLPVIDSLDRALEVADKANPDMSAMVEGIELTLKSMLDVVRKFGVEVIAETNVPLDPNVHQAIAMVESDDVAPGNVLGIMQKGYTLNGRTIRAAMVTVAKAKA
Question: With B6 as the protein, how does the Tm (pH 7, Thermal, CD, potassium phosphate 25 mM, reversible: yes) read?
Answer: 48 °C

Question: What about the Tm (pH 7, Thermal, DSC, potassium phosphate 25 mM, reversible: yes) of the same protein?
Answer: 48 °C

B7: Co-chaperonin GroES wild type, P0A6F9 (protein)
chain: MNIRPLHDRVIVKRKEVETKSAGGIVLTGSAAAKSTRGEVLAVGNGRILENGEVKPLDVKVGDIVIFNDGYGVKSEKIDNEEVLIMSESDILAIVEA
Question: What does the source list for B7?
Answer: denaturant m value [2]: 1.83 kcal/mol/M; unfolding free energy [2]: 24.1 kJ/mol

B8: Glutamine-binding periplasmic protein wild type, P0AEQ3 (protein)
chain: MKSVLKVSLAALTLAFAVSSHAADKKLVVATDTAFVPFEFKQGDKYVGFDVDLWAAIAKELKLDYELKPMDFSGIIPALQTKNVDLALAGITITDERKKAIDFSDGYYKSGLLVMVKANNNDVKSVKDLDGKVVAVKSGTGSVDYAKANIKTKDLRQFPNIDNAYMELGTNRADAVLHDTPNILYFIKTAGNGQFKAVGDSLEAQQYGIAFPKGSDELRDKVNGALKTLRENGTYNEIYKKWFGTEPK
Question: With B8 as the protein, how does the Tm (pH 8.3, Thermal, Absorbance, Tris-HCl 10 mM) read?
Answer: 63.1 °C and 66.2 °C

B9: Aspartate aminotransferase wild type, P00509 (protein)
chain: MFENITAAPADPILGLADLFRADERPGKINLGIGVYKDETGKTPVLTSVKKAEQYLLENETTKNYLGIDGIPEFGRCTQELLFGKGSALINDKRARTAQTPGGTGALRVAADFLAKNTSVKRVWVSNPSWPNHKSVFNSAGLEVREYAYYDAENHTLDFDALINSLNEAQAGDVVLFHGCCHNPTGIDPTLEQWQTLAQLSVEKGWLPLFDFAYQGFARGLEEDAEGLRAFAAMHKELIVASSYSKNFGLYNERVGACTLVAADSETVDRAFSQMKAAIRANYSNPPAHGASVVATILSNDALRAIWEQELTDMRQRIQRMRQLFVNTLQEKGANRDFSFIIKQNGMFSFSGLTKEQVLRLREEFGVYAVASGRVNVAGMTPDNMAPLCEAIVAVL
Question: What does the source list for B9?
Answer: denaturant m value (pH 7.5, 10 °C, Urea, CD, LcrH): 3.4 kcal/mol/M; unfolding free energy (pH 7.5, 10 °C, Urea, CD, LcrH): 102 kJ/mol; denaturant m value (pH 7.5, 20 °C, Urea, CD, LcrH): 4.8 kcal/mol/M; unfolding free energy (pH 7.5, 20 °C, Urea, CD, LcrH): 50.2 kJ/mol; unfolding free energy (pH 7.5, 25 °C, Urea, enzyme activity, potassium phosphate 20 mM): 41.8 kJ/mol

B10: Peptide deformylase wild type, P0A6K3 (protein)
chain: MSVLQVLHIPDERLRKVAKPVEEVNAEIQRIVDDMFETMYAEEGIGLAATQVDIHQRIIVIDVSENRDERLVLINPELLEKSGETGIEEGCLSIPEQRALVPRAEKVKIRALDRDGKPFELEADGLLAICIQHEMDHLVGKLFMDYLSPLKQQRIRQKVEKLDRLKARA
Question: Which denaturant m value [3] does the source give for B10 here?
Answer: 1.8 kcal/mol/M

Question: And the unfolding free energy [3]?
Answer: 18.4 kJ/mol
